Test results: the supplement of paper PMC9170038

System: MS2 coat protein
Assay: apparent KD of MS2 coat protein; designed switch direction (-1 OFF switch, 1 ON switch): -1; higher = weaker reporter binding
Procedure, shortened: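 Stalled E. coli RNA polymerase transcribed designed RNA switches on Illumina chips, which were then titrated with SNAP-549-labelled MS2 coat protein, doubling from 0.7 or 1.5 nM to 3 µM. Steps lasted from 0.8–1.5 h at the lowest concentration to 10–20 min at the highest. The apparent KD is each design's median over clusters of curve-fitted normalised fluorescence.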

[1] = Eterna round: R95, input ligand: FMN 200 uM
[2] = Eterna round: R95, input ligand: microRNA oligo, concentration not stated
[3] = Eterna round: R95, input ligand: none
[4] = input ligand: microRNA oligo, concentration not stated

Sequence	apparent KD of MS2 coat protein [2] [nM]	apparent KD of MS2 coat protein (input ligand: FMN 200 uM) [nM]	apparent KD of MS2 coat protein (input ligand: none) [nM]	other results
CGGAGCAGAGGGAGAUCCAACAUGAGGAUCACCCAUGUCUCACAAGCUUUUUGCUCAUCUUAUUGUACCUUGGUGCU [JL ViennaUCT Edcesobi mod 6] (puzzle: Sensor v3, turn-off variant 1)	10.1	–	–	apparent KD of MS2 coat protein [1]: 40.5 nM; apparent KD of MS2 coat protein [3]: 46.8 nM
CGGAUGUAAGGAUAUUAGUAGUAGUCAGAAUAGACUAUUACUGAGAAGGUACAUGAGGAUCACCCAUGUUUCCG [Eli x4 4.18] (Eterna round: R97, puzzle: Exclusion 4)	–	27.5	16.8	–
CGGAUGUGAGGAUAUACAUGAGGAUCACCCAUGUGUGCCAGCUAGCUGACUGGCACUUGUAGAAGGCACGUCUG [JL-ex3-2.14 Brourd mod] (puzzle: Exclusion 3)	11.1	–	–	–
CGGCAAAGGUAGGAUAUGCUAGACGAGAGUCUAGCAGAAGGACCUACAUGAGGAUCACCCAUGUGUCCAAGCCG [Mat - Exclusion 6 - Eli Mod - D20] (Eterna round: R97, puzzle: Exclusion 6)	–	32	97.3	–
CGGGCCGGCCUUCCGGCCGGCCCGACAUGAGGAUCACCCAUGUAGGAUAUCCCGGCUGCCGGCCGGGAGAAGGACAUGCGCCCG [-45.9, -45.9 kcal, 17% A] (Eterna round: R96, puzzle: Exclusion NG 3)	–	104	49.3	apparent KD of MS2 coat protein [4]: 65.3 nM
CGGUGCUGAGGAUAUACAUGAGGAUCACCCAUGUGUUCCAGCUAGCGUACUGGCGGAUGUAGAAGGCGGUACUG [JL-ex3-3.40 Brourd mod] (puzzle: Exclusion 3)	13.1	–	–	apparent KD of MS2 coat protein [1]: 52.8 nM; apparent KD of MS2 coat protein [3]: 17.7 nM
CGGUGUAACACAGGAUAUCAUCGCAACUGACGUUGAGAAGGGUGACAUGAGGAUCACCCAUGUGAUUUCUCAAUAUUAUACAUC [Prohibition 83 - Jieux - Exclusion NG 1] (Eterna round: R96, puzzle: Exclusion NG 1)	–	508	629	apparent KD of MS2 coat protein [4]: 481 nM
CGGUGUAACAGAGGAUAUGAGCGCAACUGACGAUCAGAAGGCUGACAUGAGGAUCACCCAUGUGAUUUCUCAAUAUUAUACAUC [Prohibition 89 - Jieux - Exclusion NG 1] (Eterna round: R96, puzzle: Exclusion NG 1)	–	34.2	153	apparent KD of MS2 coat protein [4]: 324 nM
CGGUGUAGAGGAUAUACGUGGAUGUAAGUUCAUGAUAUUUUACAUGAGGAUCACCCAUGUAGAAGGCUAUAGCG [JR_Ex2_Sub079] (Eterna round: R97, puzzle: Exclusion 2)	–	36.2	351	–
CGUAAGCUAGGAUAUGCUUUGGGAAAGCAUUCCUUCGAUAAACUUGAGGAUCACCCAAGUAGAAGGAGCUUACG [salish99_ex2_r4_010] (Eterna round: R97, puzzle: Exclusion 2)	–	24.8	16.8	–
CGUAAGUGAGGAUAUCGUAGAGGAGACAUGAGGAUCACCCAUGUGUCAAGCGGUCCCGAAUGAGAAGGCACUGGUU [EX5 B.25] (Eterna round: R97, puzzle: Exclusion 5)	–	21.5	20.3	–
CGUAGACAUGAGGAUCACCCAUGUGAGGAUAUGCUUUUUUAUUAGAAAUGGUGGAGGAGCAGAAGGCACGUGCG [-21.6, -21.5 kcal, 28% A] (Eterna round: R97, puzzle: Exclusion 1)	–	160	59.7	–
CGUAUGUAAGGAUAUUAGUAGUAGUCAGAAUAGACUAUUACUGAGAAGGUACAUGAGGAUCACCCAUGUUAGCG [Eli x4 4.15] (Eterna round: R97, puzzle: Exclusion 4)	–	229	31.6	–
CGUCAACAUGAGGAUCACCCAUGUUAGGAUAUAGAGCCAGGGCACGACGCUAACCAGUCUAGAAGGGACGUGGG [Eternabot (Original) Solution 5] (Eterna round: R97, puzzle: Exclusion 1)	–	45.9	37.1	–
CGUCAGUGAGGAUAUGGUAACAUUUACAUGAGGAUCACCCAUGUUUCUUGGGACUAAAUACUAGAAGGCACUGACG [JR_Ex5_Sub032] (Eterna round: R97, puzzle: Exclusion 5)	–	23.1	15	–
CGUCUGUAAGGAUAUGGUAGCGUUUACAUGAGGAUCACCCAUGUUACAUGGGACUAGAGACUAGAAGGUACGAACG [EX5 #51] (Eterna round: R97, puzzle: Exclusion 5)	–	589	2520	–
CGUCUGUAAGGAUAUGGUUGCAUCAACAUGAGGAUCACCCAUGUUACAUGGGACUAGUGAUUAGAAGGUACGAACG [EX5 #57] (Eterna round: R97, puzzle: Exclusion 5)	–	58.3	54.2	–
CGUGCGUAUGUGAGGAUAUGCUGGUCCUUGGAUCGGCAGAAGGCACAUGAGGAUCACCCAUGUGGUGUCGUACG [salish99_Bmod_ex4_080] (puzzle: Brourd's mod of Exclusion 4)	374	–	–	–

Sequence	apparent KD of MS2 coat protein [2] [nM]	apparent KD of MS2 coat protein (input ligand: FMN 200 uM) [nM]	apparent KD of MS2 coat protein (input ligand: none) [nM]	other results
CGUGUGUAAGGAUAUUUUGCAAGGCGGUGGACCCGCCUAUUAGAGAAGGUACAUGAGGAUCACCCAUGUGAGCC [Eternabot (L2) Solution 74] (Eterna round: R97, puzzle: Exclusion 4)	–	58.2	42.3	–
CGUUAGUGAGGAUAUGGAAAUAGGUACAUGAGGAUCACCCAUGUUUGAAGGGAAAAGAGCCUAGAAGGCACUAACG [JR_Ex5_Sub055] (Eterna round: R97, puzzle: Exclusion 5)	–	23.5	35.2	–
CUAAUACAUCAGGAUAUGUGUCAUUAUAGCGACACAGAAGGGAUGACAUGAGGAUCACCCAUGUCAAAGGGUGA [eternacac ex6r4 sub22] (Eterna round: R97, puzzle: Exclusion 6)	–	85.4	639	–
CUAAUGAUAGGAUAUACAGCGAGAGUCGACUCUGGUGCUCAACAUGAGGAUCACCCAUGUAGAAGGAUCAGACC [EX2 C.23] (Eterna round: R97, puzzle: Exclusion 2)	–	35.9	18.6	–
CUAAUUUGUGUGAGGAUAUGGCGACAGGAGACUAGCCAGAAGGUACAUGAGGAUCACCCAUGUAAGGUCCUCUC [Eternabot (L1) Solution 86] (Eterna round: R97, puzzle: Brourd's mod of Exclusion 4)	–	16.8	16.3	–
CUAGAUCUUCGGAUCUAGUACAUGAGGAUCACCCAUGUUACGAGCUGAUUUUCAUACAAGCUUUUUGCUCGUCUUAU [Sensor v3 - Turn-off variant 1 - 29] (puzzle: Sensor v3, turn-off variant 1)	297	–	–	apparent KD of MS2 coat protein [1]: 38.1 nM; apparent KD of MS2 coat protein [3]: 41.3 nM
CUAGCGAUUGUAGGAUAUCGGACUGUUUCAGUCUGAGAAGGACAUGAGGAUCACCCAUGUGAUGCUACGUGAGUAGCACGCUAG [JL ENG1 3.85] (Eterna round: R96, puzzle: Exclusion NG 1)	–	76.9	30.5	apparent KD of MS2 coat protein [4]: 20 nM
CUAGUAUAUCAGGAUAUGAUAGCUUAUAGCAUAUCAGAAGGGAUUACAUGAGGAUCACCCAUGUGAAGGGAUGA [eternacac ex6r4 sub17] (Eterna round: R97, puzzle: Exclusion 6)	–	331	275	–
CUAGUCCGAGGAUAUAUUAAGUGAAACAUGAGGAUCACCCAUGUUAUUUAAUGGAAAUAAAUAGAAGGCGGACUAG [Mat - Exclusion 5 - JL mod - D56] (puzzle: Exclusion 5)	34.6	–	–	apparent KD of MS2 coat protein [1]: 27.2 nM; apparent KD of MS2 coat protein [3]: 51.6 nM
CUAUUACGAGGAUAUGAUUUAAAUAACAUGAGGAUCACCCAUGUUUUUACGUUAUUUUAUUUAGAAGGCGUAUAGU [JR_E5_Sub029] (puzzle: Exclusion 5)	42	–	–	–
CUAUUACGAGGAUAUGAUUUAAAUAACAUGAGGAUCACCCAUGUUUUUACGUUAUUUUGUUUAGAAGGCGUAUUGU [JR_E5_Sub027] (puzzle: Exclusion 5)	55.5	–	–	–
CUCAAGUGAGGAUAUAUACUUCCAUCAUUUGAGAUAGAAGUAUAGAAGGCACAUGAGGAUCACCCAUGUAUAAC [Lamaanan] (puzzle: Exclusion 4)	99.2	–	–	–
CUCAUGUGAGGAUAUGUGAUCAACCUUCUGUAUAGAUGAUUACAGAAGGCACAUGAGGAUCACCCAUGUAGAUC [Ex4 - 3 - 22] (puzzle: Exclusion 4)	91.6	–	–	–
CUCCUACAUGAGGAUCACCCAUGUCAGGAUAUCUCAGUGGCACCUAAAUUCGCCACCCAGAGAAGGGACGUGCA [Erralaorge] (puzzle: Exclusion 1)	13.4	–	–	–
CUCCUCAUGGCGCCUAAACACAUGAGGAUCACCCAUGUACAGGCUUUUCGCCGUCUUAUAAUAAAACCGAGGAUGCG [Soislebice] (puzzle: Sensor v3, turn-off variant 1)	300	–	–	apparent KD of MS2 coat protein [1]: 45.6 nM; apparent KD of MS2 coat protein [3]: 47.8 nM
CUCCUCGUGGCGCCUAAACACAUGAGGAUCACCCAUGUACAGGCUUUUUGCCGUCUUAUAAUAAAACCGAGGAGGCG [Arce] (puzzle: Sensor v3, turn-off variant 1)	22.1	–	–	apparent KD of MS2 coat protein [1]: 13.7 nM; apparent KD of MS2 coat protein [3]: 15.9 nM
CUCGAGUGAGGAUAUAUACUUCCAUCAUUUGAGAGAGAAGUAUAGAAGGCACAUGAGGAUCACCCAUGUAUAAA [Rierreis] (puzzle: Exclusion 4)	41.3	–	–	–
